From patent publication US20030185828 come the findings set out here.

The target of this data set is recombinant aggrecan G1G2 (globular domain 1-globular domain 2 of human aggrecan with N-terminal FLAG tag and C-terminal His tag), P16112.
Sequence of recombinant aggrecan G1G2 (globular domain 1-globular domain 2 of human aggrecan with N-terminal FLAG tag and C-terminal His tag), P16112 (P16112 20-675): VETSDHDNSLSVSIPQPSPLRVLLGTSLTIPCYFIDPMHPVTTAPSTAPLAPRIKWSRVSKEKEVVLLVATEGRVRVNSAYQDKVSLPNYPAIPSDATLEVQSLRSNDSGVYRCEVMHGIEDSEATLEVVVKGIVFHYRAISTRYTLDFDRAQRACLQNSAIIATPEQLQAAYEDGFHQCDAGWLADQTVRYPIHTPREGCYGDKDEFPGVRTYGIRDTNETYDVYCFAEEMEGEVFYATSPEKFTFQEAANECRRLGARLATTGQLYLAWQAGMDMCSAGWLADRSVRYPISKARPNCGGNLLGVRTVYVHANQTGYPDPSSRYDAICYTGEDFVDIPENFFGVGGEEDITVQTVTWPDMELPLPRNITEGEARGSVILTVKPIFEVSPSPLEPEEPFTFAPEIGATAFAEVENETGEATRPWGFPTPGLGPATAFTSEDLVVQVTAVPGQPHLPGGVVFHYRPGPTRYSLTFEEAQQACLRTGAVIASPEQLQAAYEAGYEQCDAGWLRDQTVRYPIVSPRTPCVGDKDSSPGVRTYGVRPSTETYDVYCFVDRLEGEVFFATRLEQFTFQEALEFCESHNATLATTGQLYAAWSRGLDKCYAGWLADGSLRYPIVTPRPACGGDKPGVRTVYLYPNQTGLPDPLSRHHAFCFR

B1: MDTS8 full-length protein (MDTS8Full) with FLAG tag added to the C-terminus, expressed from plasmid pCEPdE2-MDTS8Full-FLAG (protein)
chain: MECALLLACAFPAAGSGPPRGLAGLGRVAKALQLCCLCCASVAAALASDSSSGASGLNDDYVFVTPVEVDSAGSYISHDILHNGRKKRSAQNARSSLHYRFSAFGQELHLELKPSAILSSHFIVQVLGKDGASETQKPEVQQCFYQGFIRNDSSSSVAVSTCAGLSGLIRTRKNEFLISPLPQLLAQEHNYSSPAGHHPHVLYKRTAEEKIQRYRGYPGSGRNYPGYSPSHIPHASQSRETEYHHRRLQKQHFCGRRKKYAPKPPTEDTYLRFDEYGSSGRPRRSAGKSQKGLNVETLVVADKKMVEKHGKGNVTTYILTVMNMVSGLFKDGTIGSDINVVVVSLILLEQEPGGLLINHHADQSLNSFCQWQSALIGKNGKRHDHAILLTGFDICSWKNEPCDTLGFAPISGMCSKYRSCTINEDTGLGLAFTIAHESGHNFGMIHDGEGNPCRKAEGNIMSPTLTGNNGVFSWSSCSRQYLKKFLSTPQAGCLVDEPKQAGQYKYPDKLPGQIYDADTQCKWQFGAKAKLCSLGFVKDICKSLWCHRVGHRCETKFMPAAEGTVCGLSMWCRQGQCVKFGELGPRPIHGQWSAWSKWSECSRTCGGGVKFQERHCNNPKPQYGGLFCPGSSRIYQLCNINPCNENSLDFRAQQCAEYNSKPFRGWFYQWKPYTKVEEEDRCKLYCKAENFEFFFAMSGKVKDGTPCSPNKNDVCIDGVCELVGCDHELGSKAVSDACGVCKGDNSTCKFYKGLYLNQHKANEYYPVVIIPAGARSIEIQELQVSSSYLAVRSLSQKYYLTGGWSIDWPGEFPFAGTTFEYQRSFNRPERLYAPGPTNETLVFEILMQGKNPGIAWKYALPKVMNGTPPATKRPAYTWSIVQSECSVSCGGGYINVKAICLRDQNTQVNSSFCSAKTKPVTEPKICNAFSCPAYWMPGEWSTCSKACAGGQQSRKIQCVQKKPFQKEEAVLHSLCPVSTPTQVQACNSHACPPQWSLGPWSQCSKTCGRGVRKRELLCKGSAAETLPESQCTSLPRPELQEGCVLGRCPKNSRLQWVASSWSECSATCGLGVRKREMKCSEKGFQGKLITFPERRCRNIKKPNLDLEETCNRRACPAHPVYNMVAGWYSLPWQQCTVTCGGGVQTRSVHCVQQGRPSSSCLLHQKPPVLRACNTNFCPAPEKREDPSCVDFFNWCHLVPQHGVCNHKFYGKQCCKSCTRKIAAADYKDDDDK
For B1, the “degradation product reactive with the anti-aggrecanase neoepitope antibody (western blotting after overnight reaction at 37 C)” value is on record as “such degradation products were detected when the culture supernatant of the HEK293-EBNA cell transfected with the plasmid pCEPdE2-MDTS8Full-FLAG was reacted with the recombinant G1G2”.
